Test results taken from patent US20220389118A1 (Chugai, published 2022).

Legend:
[1] = target: T1, human FcγRIa extracellular domain with C-terminal His tag (human, UniProt P12314 16-292); assay: SPR (Biacore), binding amount
T1 construct: extracellular domain; also called FcgRIa
T1 sequence (P12314 16-292): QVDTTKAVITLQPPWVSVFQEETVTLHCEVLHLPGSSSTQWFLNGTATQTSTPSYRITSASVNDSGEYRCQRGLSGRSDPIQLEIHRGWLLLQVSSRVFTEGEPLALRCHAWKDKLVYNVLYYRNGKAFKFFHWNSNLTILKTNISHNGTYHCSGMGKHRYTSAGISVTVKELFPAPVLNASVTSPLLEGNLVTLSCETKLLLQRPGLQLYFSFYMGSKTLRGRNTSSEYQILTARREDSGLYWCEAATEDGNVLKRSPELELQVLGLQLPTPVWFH

[2] = target: T2, human FcγRIIIa type V extracellular domain with C-terminal His tag (human, UniProt P08637 17-208); assay: SPR (Biacore), binding amount
T2 construct: extracellular domain; also called FcγRIIIaV; FcgRIIIaV
T2 sequence (P08637 17-208 F176V): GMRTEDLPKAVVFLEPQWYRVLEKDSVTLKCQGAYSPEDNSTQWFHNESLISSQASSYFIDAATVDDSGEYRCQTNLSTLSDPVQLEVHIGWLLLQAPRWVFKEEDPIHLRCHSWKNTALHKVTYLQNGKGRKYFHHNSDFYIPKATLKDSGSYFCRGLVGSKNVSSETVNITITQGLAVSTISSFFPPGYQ

[3] = target: T3, human FcγRIIa type R extracellular domain with C-terminal His tag (human, UniProt P12318 34-217); assay: SPR (Biacore), binding amount
T3 construct: extracellular domain; also called FcγRIIaR; FcgRIIaR
T3 sequence (looked up): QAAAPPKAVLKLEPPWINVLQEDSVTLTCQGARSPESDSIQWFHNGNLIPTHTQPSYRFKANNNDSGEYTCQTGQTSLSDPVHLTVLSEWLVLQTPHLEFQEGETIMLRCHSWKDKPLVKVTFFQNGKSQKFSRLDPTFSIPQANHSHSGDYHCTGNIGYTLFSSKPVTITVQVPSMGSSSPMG

[4] = target: T4, human FcγRIIa type H extracellular domain with C-terminal His tag (human, UniProt P12318 34-217); assay: SPR (Biacore), binding amount
T4 construct: extracellular domain; also called FcγRIIaH; FcgRIIaH
T4 sequence (looked up): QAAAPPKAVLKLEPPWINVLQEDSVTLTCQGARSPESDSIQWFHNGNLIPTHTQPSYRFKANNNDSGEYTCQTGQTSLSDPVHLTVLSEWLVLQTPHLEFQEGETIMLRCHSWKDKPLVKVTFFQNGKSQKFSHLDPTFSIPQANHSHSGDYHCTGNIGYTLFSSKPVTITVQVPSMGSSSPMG

[5] = target: T5, human FcγRIIb extracellular domain with C-terminal His tag (human, UniProt P31994 43-217); assay: SPR (Biacore), binding amount
T5 construct: extracellular domain; also called FcgRIIb
T5 sequence (looked up): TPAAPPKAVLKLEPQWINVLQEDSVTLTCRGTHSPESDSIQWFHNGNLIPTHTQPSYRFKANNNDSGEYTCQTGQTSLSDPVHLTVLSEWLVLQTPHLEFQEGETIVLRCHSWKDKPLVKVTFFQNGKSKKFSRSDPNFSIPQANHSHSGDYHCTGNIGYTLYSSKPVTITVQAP

[6] = target: T6, human FcγRIIb extracellular domain with C-terminal His tag (human, UniProt P31994 43-217); assay: SPR, amount of binding
T6 construct: extracellular domain; for crystals expressed with kifunensine and trimmed with Endo F1; also called FcγRIIb extracellular region
T6 sequence (looked up): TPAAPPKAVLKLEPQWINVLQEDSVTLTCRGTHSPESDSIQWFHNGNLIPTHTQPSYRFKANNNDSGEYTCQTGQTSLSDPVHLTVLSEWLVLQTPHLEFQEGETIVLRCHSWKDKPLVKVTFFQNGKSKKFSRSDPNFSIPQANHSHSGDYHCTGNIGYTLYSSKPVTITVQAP
From the text: (§1) These variants were expressed and purified by the method of Reference Example 2. These Fc variants are called PD variants. Interactions of each PD variant with FcγRIIa type R and FcγRIIb were comprehensively evaluated by the method of Reference Example 25.

[7] = target: T7, human FcγRIIa type R extracellular domain with C-terminal His tag (human, UniProt P12318 34-217); assay: SPR, amount of binding
T7 construct: extracellular domain; also called FcγRIIaR; FcγRIIa R
T7 sequence (looked up): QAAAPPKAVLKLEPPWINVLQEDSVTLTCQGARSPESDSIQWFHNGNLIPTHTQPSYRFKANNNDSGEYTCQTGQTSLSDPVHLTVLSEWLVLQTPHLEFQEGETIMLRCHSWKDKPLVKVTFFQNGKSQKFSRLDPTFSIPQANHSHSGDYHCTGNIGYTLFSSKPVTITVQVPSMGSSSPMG
From the text: as §1

[8] = target: T8, human FcγRIIa type R extracellular domain with C-terminal His tag (human, UniProt P12318 34-217); assay: SPR (Biacore)
T8 construct: extracellular domain; also called FcγRIIaR; FcγRIIa(R)
T8 sequence (looked up): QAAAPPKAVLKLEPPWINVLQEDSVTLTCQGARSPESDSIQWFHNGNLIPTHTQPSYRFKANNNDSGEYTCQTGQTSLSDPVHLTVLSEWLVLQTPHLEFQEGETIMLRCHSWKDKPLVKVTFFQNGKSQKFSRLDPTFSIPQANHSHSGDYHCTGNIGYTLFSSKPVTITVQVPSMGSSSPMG

[9] = target: T9, human FcγRIIb extracellular domain with C-terminal His tag (human, UniProt P31994 43-217); assay: SPR (Biacore)
T9 construct: extracellular domain
T9 sequence (looked up): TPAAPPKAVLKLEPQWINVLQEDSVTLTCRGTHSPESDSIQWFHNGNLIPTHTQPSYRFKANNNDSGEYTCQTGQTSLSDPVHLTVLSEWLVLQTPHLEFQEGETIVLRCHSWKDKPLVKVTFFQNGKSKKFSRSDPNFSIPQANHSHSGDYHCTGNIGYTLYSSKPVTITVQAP

[10] = target: T10, human FcγRIa extracellular domain with C-terminal His tag (human, UniProt P12314 16-292); assay: SPR (Biacore)
T10 construct: extracellular domain
T10 sequence (P12314 16-292): as the sequence (P12314 16-292) above

[11] = target: T11, human FcγRIIIa type V extracellular domain with C-terminal His tag (human, UniProt P08637 17-208); assay: SPR (Biacore)
T11 construct: extracellular domain; also called FcγRIIIaV; FcγRIIIa(V)
T11 sequence (P08637 17-208 F176V): as the sequence (P08637 17-208 F176V) above

[12] = target: T6, human FcγRIIb extracellular domain with …; assay: SPR
[13] = target: T7, human FcγRIIa type R extracellular …; assay: SPR
human IgE [14] = target: T12, human IgE (human); assay: SPR (Biacore T200), human IgE held on SA chip by biotinylated GPC3 peptide, antibody as analyte, 37 C; pH7.4, 1.2 mM Ca; pH7.4, 1.2 mM Ca; 37 C; pH 7.4
T12 construct: Recombinant human IgE used as the antigen; its variable region is from an anti-human glypican 3 antibody; held on the chip by a biotinylated GPC3 peptide; also called hIgE
Procedure: (§2) Measurements were carried out using the following three types of running buffers:
(§3) An appropriate concentration of human IgE was injected and captured by the biotinylated GPC3 peptide to immobilize human IgE on the chip. […] Then, 10 mmol/L glycine-HCl (pH 1.5) was injected to regenerate the sensor chip. All of the assay for the interaction was performed at 37° C. Using Biacore T200 Evaluation Software (GE Healthcare), the assay results were analyzed by curve fitting to determine the binding rate constant ka (1/Ms) and dissociation rate constant kd (1/s). Dissociation constant KD (M) was calculated from the above constants.

human IgE [15] = target: T12, human IgE; assay: SPR (Biacore T200), human IgE held on SA chip by biotinylated GPC3 peptide, antibody as analyte, 37 C; pH5.8, 1.2 mM Ca; pH 5.8
Procedure: as §2, §3

human IgE [16] = target: T12, human IgE; assay: SPR (Biacore T200), human IgE held on SA chip by biotinylated GPC3 peptide, antibody as analyte, 37 C; pH5.8, 3 µM Ca; pH 5.8
Procedure: as §2, §3

human IgE [17] = target: T12, human IgE; assay: SPR (Biacore T200), human IgE held on SA chip by biotinylated GPC3 peptide, antibody as analyte, 37 C; pH7.4, 1.2 mM Ca; pH 7.4
Procedure: as §2, §3

T12 sequence (heavy, as listed by the source, chain 1 of 2, other chains not shown): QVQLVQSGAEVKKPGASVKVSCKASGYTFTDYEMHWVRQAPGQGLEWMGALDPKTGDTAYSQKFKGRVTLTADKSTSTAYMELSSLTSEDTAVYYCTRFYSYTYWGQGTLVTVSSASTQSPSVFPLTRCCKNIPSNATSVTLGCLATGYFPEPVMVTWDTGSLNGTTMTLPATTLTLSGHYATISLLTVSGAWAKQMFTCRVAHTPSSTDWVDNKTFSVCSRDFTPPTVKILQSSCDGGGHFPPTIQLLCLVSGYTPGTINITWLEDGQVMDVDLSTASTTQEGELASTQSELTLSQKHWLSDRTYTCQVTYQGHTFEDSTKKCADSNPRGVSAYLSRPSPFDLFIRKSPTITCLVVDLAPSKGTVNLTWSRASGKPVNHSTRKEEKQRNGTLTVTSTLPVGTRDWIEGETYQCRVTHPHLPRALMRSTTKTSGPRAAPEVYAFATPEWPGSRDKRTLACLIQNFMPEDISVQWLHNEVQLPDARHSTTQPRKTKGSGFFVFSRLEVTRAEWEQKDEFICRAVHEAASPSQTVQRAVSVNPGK

B1: IL6R-BP198/IL6R-L (antibody, human IgG1, kappa)
heavy: QVQLQESGPGLVKPSETLSLTCAVSGHSISHDHAWSWVRQPPGEGLEWIGFISYSGITNYNPSLQGRVTISRDNSKNTLYLQMNSLRAEDTAVYYCARSLARTTAMDYWGEGTLVTVSSASTKGPSVFPLAPSSKSTSGGTAALGCLVKDYFPEPVTVSWNSGALTSGVHTFPAVLQSSGLYSLSSVVTVPSSSLGTQTYICNVNHKPSNTKVDKKVEPKSCDKTHTCPPCPAPDYLGGDSVFLFPPKPKDTLMISRTPEVTCVVVDVSDEDGEVKFNWYVDGVEVHNAKTKPREEQYNSTYRVVSVLTVLHQDWLNGKEYKCKVSNAALPKPIEKTISKAKGQPREPQVYTLPPSRDELTKNQVSLTCLVKGFYPSDIAVEWESNGQPENNYKTTPPVLDSDGSFFLYSKLTVDKSRWQQGNVFSCSVMHEALHNHYTQESLSLSP
light: not shown
notes: EU numbering; alterations on IL6R-B3; copies: 2 + 2
relative binding activity [1]: 104 % of IL6R-BF648/IL6R-L | relative binding activity [2]: 157 % of IL6R-BF648/IL6R-L | relative binding activity [3]: 449 % of IL6R-BF648/IL6R-L | relative binding activity [4]: 188 % of IL6R-BF648/IL6R-L | relative binding activity [5]: 164 % of IL6R-BF648/IL6R-L

B2: IL6R-F652/IL6R-L (antibody, human IgG1, kappa)
heavy: QVQLQESGPGLVKPSETLSLTCAVSGHSISHDHAWSWVRQPPGEGLEWIGFISYSGITNYNPSLQGRVTISRDNSKNTLYLQMNSLRAEDTAVYYCARSLARTTAMDYWGEGTLVTVSSASTKGPSVFPLAPSSKSTSGGTAALGCLVKDYFPEPVTVSWNSGALTSGVHTFPAVLQSSGLYSLSSVVTVPSSSLGTQTYICNVNHKPSNTKVDKKVEPKSCDKTHTCPPCPAPELLGGDSVFLFPPKPKDTLYISRTPEVTCVVVDVSHEDPEVKFNWYVDGVEVHNAKTKPREEQYNSTYRVVSVLTVLHQDWLNGKEYKCKVSNKALPAPIEKTISKAKGQPREPQVYTLPPSRDELTKNQVSLTCLVKGFYPSDIAVEWESNGQPENNYKTTPPVLDSDGSFFLYSKLTVDKSRWQQGNVFSCSVMHEALHYHYTQKSLSLSP
light: not shown
notes: IL6R-F11 with P238D (EU numbering); copies: 2 + 2
relative binding activity [6]: 100 IL6R-F652/IL6R-L = 100 | relative binding activity [7]: 100 IL6R-F652/IL6R-L = 100

B3: IL6R-BP253/IL6R-L (antibody, human IgG1, kappa)
heavy: QVQLQESGPGLVKPSETLSLTCAVSGHSISHDHAWSWVRQPPGEGLEWIGFISYSGITNYNPSLQGRVTISRDNSKNTLYLQMNSLRAEDTAVYYCARSLARTTAMDYWGEGTLVTVSSASTKGPSVFPLAPSSKSTSGGTAALGCLVKDYFPEPVTVSWNSGALTSGVHTFPAVLQSSGLYSLSSVVTVPSSSLGTQTYICNVNHKPSNTKVDKKVEPKSCDKTHTCPPCPAPELLGGPSVFLFPPKPKDTLMISRTPEVTCVVVDVEHEDPEVKFNWYVDGVEVHNAKTKPREEQYNSTYRVVSVLTVLHQDWLNGKEYKCKVSNKAFPAPIEKTISKAKGQPREPQVYTLPPSRDELTKNQVSLTCLVKGFYPSDIAVEWESNGQPENNYKTTPPVLDSDGSFFLYSKLTVDKSRWQQGNVFSCSVMHEALHNHYTQESLSLSP
light: not shown
notes: Comparison control with existing alterations; copies: 2 + 2
Kd [8]: 2.1 nM | Kd [9]: 11 nM | Kd [10]: 0.067 nM | Kd [11]: 3.6 µM

B4: IL6R-BP478/IL6R-L (antibody)
heavy: QVQLQESGPGLVKPSETLSLTCAVSGHSISHDHAWSWVRQPPGEGLEWIGFISYSGITNYNPSLQGRVTISRDNSKNTLYLQMNSLRAEDTAVYYCARSLARTTAMDYWGEGTLVTVSSASTKGPSVFPLAPCSRSTSESTAALGCLVKDYFPEPVTVSWNSGALTSGVHTFPAVLQSSGLYSLSSVVTVPSSSLGTKTYTCNVDHKPSNTKVDKRVESKYGPPCPPCPAPDLLGDDSVFLFPPKPKDTLMISRTPEVTCVVVDVSDEDGEVKFNWYVDGVEVHNAKTKPREEQDNSTYRVVSVLTVLHQDWLNGKEYKCKVSNKALPRPIEKTISKAKGQPREPQVYTLPPSRDELTKNQVSLTCLVKGFYPSDIAVEWESNGQPENNYKTTPPVLDSDGSFFLYSKLTVDKSRWQQGNVFSCSVMHEALHNHYTQESLSLSP
light: not shown
notes: IL6R-BP230 in which Ala118-Thr225 (EU numbering) is replaced by Ala118-Pro222 of G4d; copies: 2 + 2
fold against IL6R-BP230/IL6R-L [12]: 1.1 fold | fold against IL6R-BP230/IL6R-L [13]: 1.1 fold

B5: 278-IgG1 (antibody, V domains shown)
VH: QSLEESGGRLVTPGTPLTLTCTASGFSLSSYHMSWVRQAPGKGLEWIGVINSAGNTYYASWAKGRFTVSKTSTTVDLNLTSLTTEDTATYFCARYVFSSGSHDIWGPGTLVTVSS
VL: AYDMTQTPASVEVAVGGTVTIKCQASQSIGSWLAWYQQKPGQPPKELIYGTSTLESGVPSRFIGSGSGTEFTLTISGVECADAATYYCQQGYSEDNIDNAFGGGTEVVVKR
notes: pH-dependent anti-human IgE antibody
kon (human IgE [14]): 1.5e+06 M⁻¹ s⁻¹ | koff (human IgE [15]): 0.23 s⁻¹ | kon (human IgE [15]): 120000 M⁻¹ s⁻¹ | koff (human IgE [16]): 0.24 s⁻¹ | kon (human IgE [16]): 62000 M⁻¹ s⁻¹ | koff (human IgE [17]): 0.0036 s⁻¹
